Laboratory results taken from patent publication US20140120109A1 (Regeneron, published 2014).

What was measured:
[1] = biological target: T1, human TL1A, soluble, CHO-expressed, residues 72-251 of SEQ ID NO:244 with N-terminal His6-tag (human, UniProt O95150 72-251); experiment: SPR 37C, mAb captured
T1 construct: also called hTL1A; hTL1A (CHO)
T1 sequence: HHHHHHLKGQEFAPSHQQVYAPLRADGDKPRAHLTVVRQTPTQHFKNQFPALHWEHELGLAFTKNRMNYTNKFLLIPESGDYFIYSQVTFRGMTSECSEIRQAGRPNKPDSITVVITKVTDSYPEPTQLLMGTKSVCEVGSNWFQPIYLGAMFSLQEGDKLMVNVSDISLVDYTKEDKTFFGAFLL
In short: (§1)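 Biacore T100 SPR with captured mAb and soluble TL1A/Fhm analyte; ka and kd fitted to a 1:1 model assuming monomeric TL1A. KD = kd/ka; t1/2 (min) = ln2/(60·kd).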

[2] = biological target: T2, Fhm, hTL1A(Q167R), soluble, E. coli-expressed, residues 72-251 of SEQ ID NO:246 (human, UniProt O95150 72-251); experiment: SPR 37C, mAb captured
T2 construct: with or without N-terminal Met
T2 chain: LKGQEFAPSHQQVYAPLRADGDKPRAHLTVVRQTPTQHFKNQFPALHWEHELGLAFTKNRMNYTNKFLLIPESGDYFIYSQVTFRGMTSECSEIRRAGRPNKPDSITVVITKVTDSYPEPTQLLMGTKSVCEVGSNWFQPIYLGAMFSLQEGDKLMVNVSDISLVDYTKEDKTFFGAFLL
In short: as §1

[3] = biological target: T3, cynomolgus monkey TL1A, soluble, CHO-expressed, residues 72-251 of SEQ ID NO:248 with N-terminal His6-tag (cynomolgus monkey (Macaca fascicularis), UniProt O95150 72-251 (human entry)); experiment: SPR 37C, mAb captured
T3 construct: also called MfTL1A; MfTL1A (CHO)
T3 chain: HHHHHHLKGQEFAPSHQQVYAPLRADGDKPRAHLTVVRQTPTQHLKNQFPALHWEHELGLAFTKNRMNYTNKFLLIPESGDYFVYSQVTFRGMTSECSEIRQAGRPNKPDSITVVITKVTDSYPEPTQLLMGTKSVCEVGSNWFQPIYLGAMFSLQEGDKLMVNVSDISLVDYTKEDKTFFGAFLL
In short: as §1

[4] = biological target: T4, cynomolgus monkey TL1A, soluble, E. coli-expressed, residues 72-251 of SEQ ID NO:248 (cynomolgus monkey (Macaca fascicularis), UniProt O95150 72-251 (human entry)); experiment: SPR 37C, mAb captured
T4 construct: with or without N-terminal Met; also called MfTL1A (E. Coli)
T4 chain: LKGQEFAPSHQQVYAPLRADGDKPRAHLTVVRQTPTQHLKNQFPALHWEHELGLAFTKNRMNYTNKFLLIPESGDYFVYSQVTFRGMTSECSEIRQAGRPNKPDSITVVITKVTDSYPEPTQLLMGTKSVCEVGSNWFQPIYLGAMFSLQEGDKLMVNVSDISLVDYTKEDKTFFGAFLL
In short: as §1

[5] = biological target: T5, rat TL1A, soluble, CHO-expressed, residues 76-252 of SEQ ID NO:258 with N-terminal His6-tag (rat, UniProt Q8K3Y7 76-252); experiment: SPR 37C, mAb captured
T5 construct: also called rTL1A; rTL1A (CHO)
T5 sequence: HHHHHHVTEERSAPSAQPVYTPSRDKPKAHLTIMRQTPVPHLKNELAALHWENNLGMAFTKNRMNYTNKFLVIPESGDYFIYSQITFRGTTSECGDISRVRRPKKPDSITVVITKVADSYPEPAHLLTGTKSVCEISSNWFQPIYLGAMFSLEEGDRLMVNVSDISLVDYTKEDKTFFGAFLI
In short: as §1

[6] = biological target: T6, Fhm, hTL1A(Q167R), soluble, CHO-expressed, residues 72-251 of SEQ ID NO:246 (human, UniProt O95150 72-251); experiment: ELISA, blocks FHM (10 pM) binding hDcR3-Fc
T6 construct: also called Fhm (CHO); FHM (CHO)
T6 chain: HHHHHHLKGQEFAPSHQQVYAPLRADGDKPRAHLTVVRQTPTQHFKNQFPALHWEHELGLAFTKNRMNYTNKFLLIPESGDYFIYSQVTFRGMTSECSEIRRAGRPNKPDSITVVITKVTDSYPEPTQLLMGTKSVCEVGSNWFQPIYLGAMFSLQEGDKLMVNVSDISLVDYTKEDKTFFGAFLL
Method: The ability of antibodies to block human TL1A binding to its cognate receptors, the DR3 and DcR3 receptors, was measured using a competition sandwich ELISA. In addition, blocking of a human TL1A variant FHM (human TL1A Q167R) and the cynomolgus monkey (Macaca fascicularis) TL1A (MfTL1A) protein binding to the human DR3 or DcR3 receptors was measured in the same manner. Constant amounts of biotinylated human TL1A or FHM (both expressed with a 6-His tag in CHO cells) or biotinylated MfTL1A (expressed in CHO cells) were separately titrated with varying amounts of antibodies. The antibody-protein complexes were incubated in solution (1 hr, 25° C.) and then transferred to microtiter plates coated with human DR3 (hDR3) or human DcR3 (hDcR3) expressed as human IgG1 Fc fusion proteins. After one hour at 25° C. the wells were washed, and bound human or monkey TL1A was detected with streptavidin conjugated with horseradish peroxidase (HRP). Wells were developed with a TMB solution to produce a colorimetric reaction and quenched with aqueous sulfuric acid before reading absorbance at 450 nm on a Perkin-Elmer Victor X5 plate reader. A sigmoidal dose-response curve was fit to the data using the Prism™ data analysis package. […] Both fully human anti-hTL1A mAbs and comparator antibodies, i.e., control mAb1 (an anti-hTL1A antibody with heavy and light chain variable domains having the amino acid sequences corresponding to SEQ ID NOS:21 and 27, respectively, of US 2009/0280116) and control mAb3 (an anti-hTL1A antibody with heavy and light chain variable domains having the amino acid sequences corresponding to SEQ ID NOS:57 and 48, respectively, of US 2009/0280116), were included in the study. NB: No binding under the conditions tested; NT: Not tested. Concentrations of biotinylated soluble ligands: (1) 150 pM; (2) 500 pM; (3) 10 pM; and (4) 50 pM.

Row | Binder | Kd [1] | t1/2 [1] | Kd [2] | t1/2 [2] | Kd [3] | t1/2 [3] | Kd [4] | t1/2 [4] | Kd [5] | t1/2 [5] | IC50 [6]
1 | H4H1725P (antibody, human IgG4 S228P, V domains shown) VH: QVQLVQSGAEVKKPGASVKVSCKASGYTFTGYYMHWVRQAPGQGLEWMGWIKPKSGGTNYVQKFQGRVTMTRDTSINTAYMELNNLKSDDTAVYYCATGGSQDASDFWGQGTMVTVSS VL: DIQMTQSPSSVSASVGGRVTITCRASQDISIWLAWYQQKPGKAPNLLIYAASSLQSGVPSRFSGSGSGTDFTLTISSLQPEDFATYYCQQADSFPLTFGGGTKVEIK | 0.0239 nM | 12.6 h | 0.0436 nM | 3.23 h | 0.0177 nM | 14.8 h | 0.0622 nM | 2.9 h | 0.411 nM | 0.25 h | 0.085 nM
2 | H4H1745P (antibody, human IgG4 S228P, V domains shown) VH: EVQLVESGGGLVQPGGSLRLSCAASGFTFSSYAMTWVRQAPGKGLEWVSGVSGRGGSTYYADSVKGRFTISRDNSKNTLYLQMNSLRAEDTAVYYCAYWDISSFDYWGQGTLVTVSS VL: DIQLTQSPSFLSASVGDRVTITCWASQGISTYLAWYQQKPGKTPKLLIYAASTLQSGVPSRFSGSGSGTDFTLTISSLQPEDFATYYCQQFNSYPLTFGGGTKVEIK | 0.177 nM | 2.15 h | 0.207 nM | 1.18 h | 0.173 nM | 2.07 h | 0.281 nM | 1.23 h | 16.5 nM | 0.183 h | 0.085 nM
